Measurements published in article PMC5941314.

Experiments:
[1] = biological target: ZNRF1^CTD (C-terminal domain of ZNRF1, residues 139–227) (UniProt Q8ND25); test: ITC; ZNRF1 construct (10–30 µM) in the cell, E2 in the syringe; 25°C; 20 mM sodium phosphate pH 8.0, 150 mM NaCl; single site model
Ube2T (Homo sapiens) = Ube2T (Homo sapiens) (UniProt Q9NPD8); conditions: cited from earlier work
Ube2T (Homo sapiens), sequence (Q9NPD8 whole entry): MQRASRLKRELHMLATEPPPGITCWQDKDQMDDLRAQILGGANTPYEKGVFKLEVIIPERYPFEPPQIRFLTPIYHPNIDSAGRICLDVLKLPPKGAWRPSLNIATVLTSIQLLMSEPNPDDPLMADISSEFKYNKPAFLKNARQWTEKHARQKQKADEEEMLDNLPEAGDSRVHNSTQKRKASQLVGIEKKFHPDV

ZNRF1^CTD (C-terminal domain of ZNRF1, residues 139–227), sequence (Q8ND25 139-227): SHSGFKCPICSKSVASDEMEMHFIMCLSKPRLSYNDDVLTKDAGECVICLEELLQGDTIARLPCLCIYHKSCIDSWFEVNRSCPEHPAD
Ube2D2, sequence (P62837 whole entry): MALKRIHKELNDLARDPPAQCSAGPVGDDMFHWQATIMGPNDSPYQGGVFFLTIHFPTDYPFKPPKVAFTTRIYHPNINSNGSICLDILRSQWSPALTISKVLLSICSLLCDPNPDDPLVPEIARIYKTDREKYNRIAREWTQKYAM
Ube2W, sequence (Q96B02 whole entry): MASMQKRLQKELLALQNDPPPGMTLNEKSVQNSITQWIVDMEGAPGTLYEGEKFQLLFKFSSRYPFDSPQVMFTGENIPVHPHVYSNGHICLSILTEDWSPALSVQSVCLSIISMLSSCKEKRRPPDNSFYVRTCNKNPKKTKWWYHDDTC
FANCL, sequence (Q9NW38 2-375): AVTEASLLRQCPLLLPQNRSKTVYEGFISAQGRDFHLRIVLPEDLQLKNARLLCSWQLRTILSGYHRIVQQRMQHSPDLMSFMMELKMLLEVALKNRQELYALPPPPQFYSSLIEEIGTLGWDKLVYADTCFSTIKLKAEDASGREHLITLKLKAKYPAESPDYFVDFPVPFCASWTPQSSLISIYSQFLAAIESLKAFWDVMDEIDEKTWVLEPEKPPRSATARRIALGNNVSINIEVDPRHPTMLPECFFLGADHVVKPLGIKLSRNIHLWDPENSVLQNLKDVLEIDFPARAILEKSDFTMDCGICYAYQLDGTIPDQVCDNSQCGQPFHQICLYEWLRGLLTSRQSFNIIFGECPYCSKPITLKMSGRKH

| dH [1] | stoichiometry N [1] | Substance | Kd (Ube2T (Homo sapiens)) |
| --- | --- | --- | --- |
| -8.85 kcal/mol | 0.906 | Ube2W (from UniProt Q96B02 1-151) (enzyme) | – |
| – | – | FANCL (from UniProt Q9NW38) | 500 nM |
| -7.79 kcal/mol | 0.963 | Ube2D2 (from UniProt P62837 1-147) (enzyme) | – |
